Five substances from PMC6744478 can be followed below.

Assay [1] deals with RGS7/TS-Gβ5 duplex (human) (UniProt P49802). The assay is described as follows: pull-down; Expi293 cells co-transfected with RGS7, TS-Gβ5, R7BP-HIS and either WDR61 (sample A) or R7BPΔNC (sample B); lysate on MagStrep type3 XT beads, 4 °C, one hour; Western blot with anti-Gβ5 and anti-R7BP, bands quantified. On the technique in general: A western blot detects proteins with antibodies after separation by electrophoresis.
Sequence of RGS7/TS-Gβ5 duplex (human) (P49802 whole entry, chain 1 of 2): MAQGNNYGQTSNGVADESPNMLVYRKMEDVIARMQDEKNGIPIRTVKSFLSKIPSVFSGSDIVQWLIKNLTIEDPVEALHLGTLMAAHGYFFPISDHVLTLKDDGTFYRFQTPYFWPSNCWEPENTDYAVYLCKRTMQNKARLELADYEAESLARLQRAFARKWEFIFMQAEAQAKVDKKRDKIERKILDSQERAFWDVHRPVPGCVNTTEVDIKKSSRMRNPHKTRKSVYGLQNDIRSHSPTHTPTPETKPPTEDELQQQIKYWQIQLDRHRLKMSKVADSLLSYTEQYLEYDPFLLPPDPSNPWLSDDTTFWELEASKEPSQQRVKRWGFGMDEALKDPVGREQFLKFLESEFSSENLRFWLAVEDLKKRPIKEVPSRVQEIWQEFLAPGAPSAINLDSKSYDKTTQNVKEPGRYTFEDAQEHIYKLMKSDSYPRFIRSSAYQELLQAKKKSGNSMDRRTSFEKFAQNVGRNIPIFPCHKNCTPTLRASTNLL
Sequence of RGS7/TS-Gβ5 duplex (human) (O14775 43-395, chain 2 of 2, further chain): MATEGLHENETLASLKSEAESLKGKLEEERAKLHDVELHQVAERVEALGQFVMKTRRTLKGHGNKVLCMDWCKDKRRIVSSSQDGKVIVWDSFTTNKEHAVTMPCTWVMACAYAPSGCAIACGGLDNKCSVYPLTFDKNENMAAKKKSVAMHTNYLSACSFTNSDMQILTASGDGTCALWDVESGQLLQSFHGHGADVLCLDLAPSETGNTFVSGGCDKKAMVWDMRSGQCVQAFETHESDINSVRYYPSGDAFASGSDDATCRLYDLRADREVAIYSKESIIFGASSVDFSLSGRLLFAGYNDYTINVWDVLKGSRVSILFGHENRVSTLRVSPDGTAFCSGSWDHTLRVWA

The target of assay [2] is R7BPΔNC (construct R7BPΔNC-TEV-TS) (human) (UniProt Q6MZT1). The assay can be described thus: SPR; OpenSPR (Nicoya), Streptavidin sensor chip; tagged R7BP variant as ligand, purified R7-RGS/Gβ5 duplex as analyte at 3–5 concentrations; PBS pH 7.4, 0.005% Tween20; 25 µL per minute; 1:1-binding model; two independent experiments. (In general: SPR reads the build-up and loss of mass on a sensor chip optically.)

In general, Kd refers to a measure of binding affinity in units of concentration. High values mean lower affinity, low ones higher affinity.

Sequence of RGS6/Gβ5 duplex (P49758 whole entry): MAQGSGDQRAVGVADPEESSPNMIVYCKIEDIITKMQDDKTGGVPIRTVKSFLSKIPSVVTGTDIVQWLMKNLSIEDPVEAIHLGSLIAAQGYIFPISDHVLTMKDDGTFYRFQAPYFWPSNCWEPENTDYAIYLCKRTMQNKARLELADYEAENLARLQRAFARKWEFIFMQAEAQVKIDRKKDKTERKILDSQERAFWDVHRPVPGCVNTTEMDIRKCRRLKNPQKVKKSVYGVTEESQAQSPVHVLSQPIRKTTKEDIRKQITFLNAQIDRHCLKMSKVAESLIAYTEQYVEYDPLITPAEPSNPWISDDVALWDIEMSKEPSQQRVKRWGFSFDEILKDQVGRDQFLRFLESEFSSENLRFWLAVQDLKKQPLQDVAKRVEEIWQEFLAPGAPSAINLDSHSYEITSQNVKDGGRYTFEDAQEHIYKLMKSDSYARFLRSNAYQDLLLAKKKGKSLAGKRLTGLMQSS
Sequence of RGS6/Gβ5 duplex (O14775 43-395): as the sequence (O14775 43-395, chain 2 of 2, further chain) above
Sequence of RGS11/Gβ5 duplex (O94810 whole entry): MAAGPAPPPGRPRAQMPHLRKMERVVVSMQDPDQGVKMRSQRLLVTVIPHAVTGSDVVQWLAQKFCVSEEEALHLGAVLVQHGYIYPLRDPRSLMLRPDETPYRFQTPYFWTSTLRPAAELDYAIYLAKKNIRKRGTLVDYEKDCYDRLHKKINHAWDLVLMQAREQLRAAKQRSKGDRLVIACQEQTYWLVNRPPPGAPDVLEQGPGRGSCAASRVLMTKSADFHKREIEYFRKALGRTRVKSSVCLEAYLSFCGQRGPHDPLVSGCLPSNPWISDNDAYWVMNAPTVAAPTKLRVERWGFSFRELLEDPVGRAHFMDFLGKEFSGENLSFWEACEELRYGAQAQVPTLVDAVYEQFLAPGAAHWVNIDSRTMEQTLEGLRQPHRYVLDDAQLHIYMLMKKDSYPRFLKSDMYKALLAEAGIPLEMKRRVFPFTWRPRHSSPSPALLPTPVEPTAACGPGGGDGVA
Sequence of RGS11/Gβ5 duplex (O14775 43-395): as the sequence (O14775 43-395, chain 2 of 2, further chain) above
Sequence of RGS9/Gβ5 duplex (O75916 whole entry): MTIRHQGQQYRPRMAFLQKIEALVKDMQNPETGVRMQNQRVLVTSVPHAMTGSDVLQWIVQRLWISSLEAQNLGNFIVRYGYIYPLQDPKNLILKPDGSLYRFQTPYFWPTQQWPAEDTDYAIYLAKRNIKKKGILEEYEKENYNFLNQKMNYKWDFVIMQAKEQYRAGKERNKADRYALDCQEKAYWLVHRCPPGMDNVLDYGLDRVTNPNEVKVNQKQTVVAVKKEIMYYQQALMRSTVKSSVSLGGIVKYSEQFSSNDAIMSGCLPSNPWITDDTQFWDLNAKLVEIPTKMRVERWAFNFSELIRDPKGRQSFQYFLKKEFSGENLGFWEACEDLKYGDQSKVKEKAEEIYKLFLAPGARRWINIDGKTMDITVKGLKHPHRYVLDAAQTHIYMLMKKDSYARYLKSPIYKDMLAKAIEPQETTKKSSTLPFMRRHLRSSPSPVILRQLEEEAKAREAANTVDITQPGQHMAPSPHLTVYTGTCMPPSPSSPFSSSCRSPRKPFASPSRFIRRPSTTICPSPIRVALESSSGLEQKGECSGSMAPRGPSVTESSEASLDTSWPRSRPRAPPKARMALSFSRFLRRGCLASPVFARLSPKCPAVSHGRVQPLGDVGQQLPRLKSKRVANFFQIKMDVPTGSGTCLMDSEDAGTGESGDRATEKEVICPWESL
Sequence of RGS9/Gβ5 duplex (O14775 43-395): as the sequence (O14775 43-395, chain 2 of 2, further chain) above
Sequence of RGS7/Gβ5 duplex (P49802 whole entry): as the sequence (P49802 whole entry, chain 1 of 2) above
Sequence of RGS7/Gβ5 duplex (O14775 43-395): as the sequence (O14775 43-395, chain 2 of 2, further chain) above

Consider “R7BPΔNC (construct R7BPΔNC-TEV-TS) (from UniProt Q6MZT1 21-223) (domain or fragment)”, for which the percent reduction of the binding of R7BP-FL with the RGS7/Gβ5 duplex in assay [1] is 50%. Turning to “RGS6/Gβ5 duplex (from UniProt P49758 1-472; O14775-2 1-353) (complex)”, the Kd in assay [2] is 1.5 nM. For the substance “RGS7/Gβ5 duplex (from UniProt P49802 1-495; O14775-2 1-353) (complex)”, the Kd in assay [2] was determined as 2.3 nM.

“RGS9/Gβ5 duplex (from UniProt O75916 1-674; O14775-2 1-353) (complex)” displayed a dissociation constant (Kd) in assay [2] of 3.2 nM. In assay [2], “RGS11/Gβ5 duplex (from UniProt O94810 1-467; O14775-2 1-353) (complex)” returned a Kd of 1.5 nM.
